According to patent US20190263889A1 (ONCOC4, published 2019):

B1: human B7-1Fc fusion protein (Fc fusion, UniProt P33681 35-242, looked up, not shown: a dimerising Fc or GST)
chain: VIHVTKEVKEVATLSCGHNVSVEELAQTRIYWQKEKKMVLTMMSGDMNIWPEYKNRTIFDITNNLSIVILALRPSDEGTYECVVLKYEKDAFKREHLAEVTLSVKADFPTPSISDFEIPTSNIRRIICSTSGGFPEPHLSWLENGEELNAINTTVSQDPETELYAVSSKLDFNMTTNHSFMCLIKYGHLRVNQTFNWNTTKQEHFPDN
notes: Used biotinylated in ELISA; also called B7-1 Ig; B7-1 Ig fusion protein
B2: CTLA-4Fc mutant protein M16 (Fc fusion)
chain: IQVTQPSVVLASSRGIASFVCEYASPGKATEVRVTVLRQADSQVTEVCAATFTEKNTVGFLDDSICTGTFNESRVNLTIQGLRAMDTGLYICKVELMYPPPYFVGMGNGTQIYVIDPEPCPDSDQEPKSSDKTHTSPPSPAPELLGGSSVFLFPPKPKDTLYITREPEVTCVVVDVSHEDPEVKFNWYVDGVEVHNAKTKPREEQYNSTYRVVSVLTVLHQDWLNGKEYKCKVSNKALPAPIEKTISKAKGQPREPQVYTLPPSRDELTKNQVSLTCLVKGFYPSDIAVEWESNGQPENNYKTTPPVLDSDGSFFLYSKLTVDKSRWQQGNVFSCSVMHEALHNHYTQKSLSLSPGK
B3: human B7-2Fc fusion protein (Fc fusion, UniProt P42081 24-245, looked up, not shown: a dimerising Fc or GST)
chain: APLKIQAYFNETADLPCQFANSQNQSLSELVVFWQDQENLVLNEVYLGKEKFDSVHSKYMGRTSFDSDSWTLRLHNLQIKDKGLYQCIIHHKKPTGMIRIHQMNSELSVLANFSQPEIVPISNITENVYINLTCSSIHGYPEPKKMSVLLRTKNSTIEYDGVMQKSQDNVTELYDVSISLSVSFPDVTSNMTIFCILETDKTRLLSSPFSIELEDPQPPPDH
notes: Used biotinylated in ELISA; also called hB7-2Fc; CD86

Key:
[1] = target: T1, human IgG1-Fc control (human, UniProt P01857-1 99-330 = IgG part, limits assumed); test: ELISA, summary grade
T1 construct: domain: Fc; Negative control coated on plates; also called Control IgG1-Fc; hIg-Fc

[2] = target: T2, CTLA-4Fc mutant protein M6 (human (murine residues substituted)); test: ELISA; binder 10 ng/ml on coated target
T2 construct: also called Mutant 6

[3] = target: T2, CTLA-4Fc mutant protein M6; test: ELISA; binder 1000 ng/ml on coated target
[4] = target: T3, CTLA-4Fc mutant protein M8 (human (murine residues substituted)); test: ELISA; binder 1000 ng/ml on coated target
T3 construct: also called Mutant 8

[5] = target: B1; test: ELISA, summary grade

Binder	binding result [1]	OD450 [2]	OD450 [3]	OD450 [4]	binding result [5]
B1	no binding	0.279 OD450	3.41 OD450	3.63 OD450	
B2					binds
B3	no binding				
